In PMC11532494 (Nature Communications, 2024):
Several values for one entry are separate records, joined by “and”; a condition that tells them apart may be missing. Identical values can stand only once. Like-named read-outs stand apart in the source and are kept apart here. No end group written: not given here. *: point of attachment. AMC = Cc1cc(=O)oc2cc(N*)ccc12

Legend:
VsHdaH (1b) = format: biochemical, Vibrio sp.
RsPrpH (1b) = experiment: Substrate screening assay (acyl-peptide-AMC); format: biochemical, Rhizorhabdus sp.
RwDmhA (1b) = RwDmhA (1b) (Rhizorhabdus wittichii, UniProt A0A067XIQ6); format: biochemical
KpHdaH (1b) = KpHdaH (1b) (Klebsiella pneumoniae, UniProt A0A377Z5F6); format: biochemical
BsAcuC (2c) = molecular target: T1, BsAcuC (2c) (Bacillus subtilis, UniProt P39067); experiment: Substrate screening assay (acyl-peptide-AMC); format: biochemical
T1 construct: made in house; host or cells: E. coli BL21 (DE3)
T1 sequence (P39067 1-387): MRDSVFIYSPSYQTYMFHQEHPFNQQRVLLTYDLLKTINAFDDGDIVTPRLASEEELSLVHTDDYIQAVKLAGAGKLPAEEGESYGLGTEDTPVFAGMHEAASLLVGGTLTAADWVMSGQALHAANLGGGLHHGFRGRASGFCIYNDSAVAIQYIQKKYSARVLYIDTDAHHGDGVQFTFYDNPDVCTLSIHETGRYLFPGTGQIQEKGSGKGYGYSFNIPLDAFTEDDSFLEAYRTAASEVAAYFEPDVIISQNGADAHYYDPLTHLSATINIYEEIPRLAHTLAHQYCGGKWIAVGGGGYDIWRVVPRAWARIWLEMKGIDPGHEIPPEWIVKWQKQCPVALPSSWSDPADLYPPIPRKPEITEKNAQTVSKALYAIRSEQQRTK
Description: (§1) Experiments with SIRT2 and SIRT5 were supplemented with NAD^+ (500 µM). Thereafter, a solution of trypsin (25 µL, 5.0 mg/mL; final concentration of 2.5 mg/mL) was added, and the development of the assay was allowed to proceed for 90 min at room temperature before fluorescence analysis. […] To this end, a single category is given to all conversions >48% on the heatmap. […] For the H4-derived peptide LGKbio no positive control was available.

VcHdaH (5b) = format: biochemical, Vibrio cholerae
PsApaH (4) = PsApaH (4) (Pseudomonas sp. M30-35, UniProt A0A1Y0KY79); format: biochemical
Description: as §1

LcApaH (3) = LcApaH (3) (Legionella cherrii, UniProt A0A0W0SGS1); format: biochemical
LpApaH (3) = LpApaH (3) (Legionella pneumophila, UniProt A0A2S6EWV0); format: biochemical
Controls [1] = format: biochemical
Controls [2] = format: biochemical; remark: listed apart in the source
[3] = substrate screening, mean of two measurements
[4] = substrate screening, measurement 1 of two
[5] = substrate screening, measurement 2 of two
[6] = two measurements, single values

For “QPKKoct (QPKK-{AMC}; not fully specified (residue 4); printed as QPKKoct; also: octanoyl-lysine (which Lys not given here); UniProt P04637 317-320, looked up, fragment)”, the “RFU means, VsHdaH (1b)” value (VsHdaH (1b); means of two measurements) was 110.5 RFU, the “RFU*2 means, VsHdaH (1b)” value (VsHdaH (1b); means of two measurements) was 221 RFU*2 and the “[AMC] (nM), VsHdaH (1b), means” value (VsHdaH (1b); [3]) was 107.91 nM. For the same substance, the “[AMC] (nM), VsHdaH (1b)” value (VsHdaH (1b); [4]) was 121.09 nM, the “[AMC] (nM), VsHdaH (1b)” value (VsHdaH (1b); [5]) was 94.73 nM and the “RFU*2, VsHdaH (1b)” value (VsHdaH (1b); [6]) was 248 RFU*2 and 194 RFU*2. For the same substance, the “RFU, VsHdaH (1b)” value (VsHdaH (1b); [6]) was 124 RFU and 97 RFU, the “RFU means, RsPrpH (1b)” value (RsPrpH (1b); means of two measurements) was 38 RFU and the “RFU*2 means, RsPrpH (1b)” value (RsPrpH (1b); means of two measurements) was 76 RFU*2. For the same substance, the “[AMC] (nM), RsPrpH (1b), means” value (RsPrpH (1b); [3]) was 37.11 nM, the “[AMC] (nM), RsPrpH (1b)” value (RsPrpH (1b); [4]) was 3.91 nM and the “[AMC] (nM), RsPrpH (1b)” value (RsPrpH (1b); [5]) was 70.31 nM. For the same substance, the “RFU means, RwDmhA (1b)” value (RwDmhA (1b); means of two measurements) was 64 RFU, the “RFU*2 means, RwDmhA (1b)” value (RwDmhA (1b); means of two measurements) was 128 RFU*2 and the “[AMC] (nM), RwDmhA (1b), means” value (RwDmhA (1b); [3]) was 62.50 nM. For the same substance, the “[AMC] (nM), RwDmhA (1b)” value (RwDmhA (1b); [4]) was 51.76 nM, the “[AMC] (nM), RwDmhA (1b)” value (RwDmhA (1b); [5]) was 73.24 nM and the “RFU*2, RwDmhA (1b)” value (RwDmhA (1b); [6]) was 106 RFU*2 and 150 RFU*2. The “RFU, RwDmhA (1b)” value (RwDmhA (1b); [6]) was 53 RFU and 75 RFU, the “RFU means, KpHdaH (1b)” value (KpHdaH (1b); means of two measurements) was -28 RFU and the “RFU*2 means, KpHdaH (1b)” value (KpHdaH (1b); means of two measurements) was -56 RFU*2. For the same substance, the “[AMC] (nM), KpHdaH (1b), means” value (KpHdaH (1b); [3]) was -27.34 nM, the “[AMC] (nM), KpHdaH (1b)” value (KpHdaH (1b); [4]) was -12.70 nM and the “[AMC] (nM), KpHdaH (1b)” value (KpHdaH (1b); [5]) was -41.99 nM. For the same substance, the “RFU means, BsAcuC (2c)” value (BsAcuC (2c); means of two measurements) was 2011.5 RFU, the “RFU*2 means, BsAcuC (2c)” value (BsAcuC (2c); means of two measurements) was 4023 RFU*2 and the “[AMC] (nM), BsAcuC (2c), means” value (BsAcuC (2c); [3]) was 1964.36 nM. For the same substance, the “RFU*2, BsAcuC (2c)” value (BsAcuC (2c); [6]) was 4802 RFU*2 and 3244 RFU*2, the “RFU means, VcHdaH (5b)” value (VcHdaH (5b); means of two measurements) was 71 RFU and the “RFU*2 means, VcHdaH (5b)” value (VcHdaH (5b); means of two measurements) was 142 RFU*2. For the same substance, the “[AMC] (nM), VcHdaH (5b), means” value (VcHdaH (5b); [3]) was 69.34 nM, the “RFU*2, VcHdaH (5b)” value (VcHdaH (5b); [6]) was 138 RFU*2 and 146 RFU*2 and the “RFU, VcHdaH (5b)” value (VcHdaH (5b); [6]) was 69 RFU and 73 RFU. The “RFU means, PsApaH (4)” value (PsApaH (4); means of two measurements) was 80.5 RFU, the “RFU*2 means, PsApaH (4)” value (PsApaH (4); means of two measurements) was 161 RFU*2 and the “[AMC] (nM), PsApaH (4), means” value (PsApaH (4); [3]) was 78.61 nM. The “[AMC] (nM), PsApaH (4)” value (PsApaH (4); [4]) was 85.94 nM, the “[AMC] (nM), PsApaH (4)” value (PsApaH (4); [5]) was 71.29 nM and the “RFU*2, PsApaH (4)” value (PsApaH (4); [6]) was 146 RFU*2 and 176 RFU*2. For the same substance, the “RFU, PsApaH (4)” value (PsApaH (4); [6]) was 73 RFU and 88 RFU, the “RFU means, LcApaH (3)” value (LcApaH (3)) was 186 RFU and the “RFU*2 means, LcApaH (3)” value (LcApaH (3)) was 372 RFU*2. The “[AMC] (nM), LcApaH (3), means” value (LcApaH (3)) was 181.64 nM, the “RFU means, LpApaH (3)” value (LpApaH (3)) was 63 RFU and the “RFU*2, LpApaH (3)” value (LpApaH (3)) was 110 RFU*2 and 142 RFU*2. The “RFU*2 means, LpApaH (3)” value (LpApaH (3)) was 126 RFU*2, the “RFU, LpApaH (3)” value (LpApaH (3)) was 55 RFU and 71 RFU and the “[AMC] (nM), LpApaH (3)” value (LpApaH (3)) was 53.71 nM and 69.34 nM. For the same substance, the “[AMC] (nM), LpApaH (3), means” value (LpApaH (3)) was 61.52 nM, the “RFU means, controls” value (Controls [1]) was 8340.5 RFU and the “RFU*2, controls” value (Controls [1]) was 13158 RFU*2 and 20204 RFU*2. For the same substance, the “RFU*2 means, controls” value (Controls [1]) was 16681 RFU*2, the “RFU, controls” value (Controls [1]) was 6579 RFU and 10102 RFU and the “[AMC] (nM), controls, means” value (Controls [2]) was 8145.02 nM.
